# Results as given in article PMC6750980.
# Molecular target: Hepatitis C virus p7 protein from genotype 5a (EUH1480 strain) (Hepatitis C virus genotype 5a (EUH1480 strain))
# Assay: SEC
substance,measurement,value
Hepatitis C virus p7 protein from genotype 5a (EUH1480 strain) (natural protein),stoichiometry N,6
